Square brackets hold non-standard residues; d marks the D form. Ends that are not written are not given here. Aib = CC(C)(N)C(=O)O
T1: human glucose-dependent insulinotropic peptide receptor (human, UniProt P48546)
T1 sequence: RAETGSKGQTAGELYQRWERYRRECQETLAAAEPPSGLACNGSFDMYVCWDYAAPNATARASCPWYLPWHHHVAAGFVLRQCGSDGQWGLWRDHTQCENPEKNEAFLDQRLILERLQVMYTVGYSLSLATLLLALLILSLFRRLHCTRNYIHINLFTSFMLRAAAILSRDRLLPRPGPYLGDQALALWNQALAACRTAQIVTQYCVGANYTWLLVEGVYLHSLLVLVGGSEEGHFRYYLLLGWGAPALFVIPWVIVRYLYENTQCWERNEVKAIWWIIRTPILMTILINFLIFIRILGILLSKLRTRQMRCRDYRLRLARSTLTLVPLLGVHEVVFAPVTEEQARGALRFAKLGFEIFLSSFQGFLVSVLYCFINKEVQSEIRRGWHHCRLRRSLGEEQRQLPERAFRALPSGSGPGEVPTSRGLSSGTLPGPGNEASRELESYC


Key:
[1] = target: human glucagon-like peptide-1 receptor (human, UniProt P43220); assay: cell-based or functional assay
[2] = target: T1, human glucose-dependent insulinotropic …; assay: cell-based or functional assay

Row | Binder | Activity for human GLP-1R (EC50 nM), cAMP HTRF [1] [nM] | Activity for human GIPR (EC50 nM), cAMP HTRF [2] [nM]
1 | Y[Aib]EGTFTSDYSIYLEKIAAQEFVNWLLAGGPSSGAPPPSK-NH2 (N-terminus assumed; SMILES CC[C@H](C)[C@H](NC(=O)[C@H](CCCCN)NC(=O)[C@H](CCC(=O)O)NC(=O)[C@H](CC(C)C)NC(=O)[C@H](Cc1ccc(O)cc1)NC(=O)[C@@H](NC(=O)[C@H](CO)NC(=O)[C@H](Cc1ccc(O)cc1)NC(=O)[C@H](CC(=O)O)NC(=O)[C@H](CO)NC(=O)[C@@H](NC(=O)[C@H](Cc1ccccc1)NC(=O)[C@@H](NC(=O)CNC(=O)[C@H](CCC(=O)O)NC(=O)C(C)(C)NC(=O)[C@@H](N)Cc1ccc(O)cc1)[C@@H](C)O)[C@@H](C)O)[C@@H](C)CC)C(=O)N[C@@H](C)C(=O)N[C@@H](C)C(=O)N[C@@H](CCC(N)=O)C(=O)N[C@@H](CCC(=O)O)C(=O)N[C@@H](Cc1ccccc1)C(=O)N[C@H](C(=O)N[C@@H](CC(N)=O)C(=O)N[C@@H](Cc1c[nH]c2ccccc12)C(=O)N[C@@H](CC(C)C)C(=O)N[C@@H](CC(C)C)C(=O)N[C@@H](C)C(=O)NCC(=O)NCC(=O)N1CCC[C@H]1C(=O)N[C@@H](CO)C(=O)N[C@@H](CO)C(=O)NCC(=O)N[C@@H](C)C(=O)N1CCC[C@H]1C(=O)N1CCC[C@H]1C(=O)N1CCC[C@H]1C(=O)N[C@@H](CO)C(=O)N[C@@H](CCCCN)C(N)=O)C(C)C) [Compound No. 14] | 0.008 | 0.006
2 | Y[Aib]EGTFTSDYSIYLEKIAAKEFVNWLLAGGPSSGAPPPSK-NH2 (N-terminus assumed; SMILES CC[C@H](C)[C@H](NC(=O)[C@H](CCCCN)NC(=O)[C@H](CCC(=O)O)NC(=O)[C@H](CC(C)C)NC(=O)[C@H](Cc1ccc(O)cc1)NC(=O)[C@@H](NC(=O)[C@H](CO)NC(=O)[C@H](Cc1ccc(O)cc1)NC(=O)[C@H](CC(=O)O)NC(=O)[C@H](CO)NC(=O)[C@@H](NC(=O)[C@H](Cc1ccccc1)NC(=O)[C@@H](NC(=O)CNC(=O)[C@H](CCC(=O)O)NC(=O)C(C)(C)NC(=O)[C@@H](N)Cc1ccc(O)cc1)[C@@H](C)O)[C@@H](C)O)[C@@H](C)CC)C(=O)N[C@@H](C)C(=O)N[C@@H](C)C(=O)N[C@@H](CCCCN)C(=O)N[C@@H](CCC(=O)O)C(=O)N[C@@H](Cc1ccccc1)C(=O)N[C@H](C(=O)N[C@@H](CC(N)=O)C(=O)N[C@@H](Cc1c[nH]c2ccccc12)C(=O)N[C@@H](CC(C)C)C(=O)N[C@@H](CC(C)C)C(=O)N[C@@H](C)C(=O)NCC(=O)NCC(=O)N1CCC[C@H]1C(=O)N[C@@H](CO)C(=O)N[C@@H](CO)C(=O)NCC(=O)N[C@@H](C)C(=O)N1CCC[C@H]1C(=O)N1CCC[C@H]1C(=O)N1CCC[C@H]1C(=O)N[C@@H](CO)C(=O)N[C@@H](CCCCN)C(N)=O)C(C)C) [Compound No. 13] | 0.013 | 0.017

Source: patent publication US20220168396A1, “MULTI-RECEPTOR AGONIST AND MEDICAL USE THEREOF” (published 2022)
